Measured values reported in the supplement of paper PMC9233669.
Variants at the floor of the assay were thinned out.

Key:
biotinyl-Phe-oxazolone = test: self-aminoacylation, catalytic enhancement (BFO) (fold over background); higher = more active; k-Seq, kA / k0A0; sequences stand for … in GGGAAUGGAUCCACAUCUACGAAUUC…UUCACUGCAGACUUGACGAAGCUG
Method in brief: (§1)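 Mutagenized RNA pools with a 21-nt variable region (0.43 μM) reacted with each biotinyl-aminoacyl-oxazolone at 2–1250 μM. Reactions ran in 50 μL HEPES/NaCl/KCl/MgCl2/CaCl2 buffer with 5% acetonitrile, pH 6.9–7.0, for 90 minutes at room temperature. Streptavidin-captured RNA was quantified by triplicate qPCR and Illumina sequencing, and per-sequence fraction reacted was fit to a pseudo-first-order model with 1000 bootstraps. Catalytic enhancement is median kA divided by the uncatalyzed rate, the low-activity peak of a bimodal Gaussian fit.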

biotinyl-Val-oxazolone = test: self-aminoacylation, catalytic enhancement (BVO) (fold over background); higher = more active; k-Seq, kA / k0A0; sequences stand for … in GGGAAUGGAUCCACAUCUACGAAUUC…UUCACUGCAGACUUGACGAAGCUG
Method in brief: as §1

biotinyl-Trp-oxazolone = test: self-aminoacylation, catalytic enhancement (BWO) (fold over background); higher = more active; k-Seq, kA / k0A0; sequences stand for … in GGGAAUGGAUCCACAUCUACGAAUUC…UUCACUGCAGACUUGACGAAGCUG
Method in brief: as §1

biotinyl-Leu-oxazolone = test: self-aminoacylation, catalytic enhancement (BLO) (fold over background); higher = more active; k-Seq, kA / k0A0; sequences stand for … in GGGAAUGGAUCCACAUCUACGAAUUC…UUCACUGCAGACUUGACGAAGCUG
Method in brief: as §1

biotinyl-Met-oxazolone = test: self-aminoacylation, catalytic enhancement (BMO) (fold over background); higher = more active; k-Seq, kA / k0A0; sequences stand for … in GGGAAUGGAUCCACAUCUACGAAUUC…UUCACUGCAGACUUGACGAAGCUG
Method in brief: as §1

biotinyl-Ile-oxazolone = test: self-aminoacylation, catalytic enhancement (BIO) (fold over background); higher = more active; k-Seq, kA / k0A0; sequences stand for … in GGGAAUGGAUCCACAUCUACGAAUUC…UUCACUGCAGACUUGACGAAGCUG
Method in brief: as §1

| Sequence | self-aminoacylation (biotinyl-Phe-oxazolone) | self-aminoacylation (biotinyl-Val-oxazolone) | self-aminoacylation (biotinyl-Trp-oxazolone) | self-aminoacylation (biotinyl-Leu-oxazolone) | self-aminoacylation (biotinyl-Met-oxazolone) | self-aminoacylation (biotinyl-Ile-oxazolone) |
| --- | --- | --- | --- | --- | --- | --- |
| AAGUUUACUAAUGGUCGCAAG [Fam3.1 aminoacylation ribozyme variant] | 1.64 | 1.1 | 2.06 | 1.47 | 1.28 | 1.59 |
| AUUAACCUGGUCAUUGAGUGA [Fam2.1 aminoacylation ribozyme variant] | 53.1 | 4.05 | 12 | 9.89 | 9.39 | 4.38 |
| CUACUUAAAACAAUCGGUCAG [Fam1A.1 aminoacylation ribozyme variant] | 0.552 | 0.79 | 0.384 | 0.66 | 0.703 | 0.636 |
| CCGCACUUCAAGCAAGCGGUC [Fam1B.1 aminoacylation ribozyme variant] | 1.43 | 1.67 | 2 | 1.31 | 1.43 | 1.65 |
| CCCCACUUCAAGCAAACGGUC [Fam1B.1 aminoacylation ribozyme variant] | 2.34 | 1.41 | 1.67 | 1.03 | 1.36 | 1.33 |
| CUCCUUCAAACAAUCGUUCUG [Fam1A.1 aminoacylation ribozyme variant] | 1.68 | 0.631 | 0.785 | 0.472 | 0.501 | 0.51 |
| AUUAUCCUGGUCACCGAGUGA [Fam2.1 aminoacylation ribozyme variant] | 54 | 3.84 | 8.39 | 8.43 | 7.82 | 3.11 |
| AUUCAGCGAGGUCAUCGGGUG [Fam2.2 aminoacylation ribozyme variant] | 44 | 5.33 | 7.06 | 7.8 | 6 | 4.46 |
| AAGUUUGCUAGUAGUCGCAAU [Fam3.1 aminoacylation ribozyme variant] | 1.2 | 1.08 | 0.724 | 0.95 | 0.922 | 1.01 |
| AUACUUCAAACAUUCGGUCUG [Fam1A.1 aminoacylation ribozyme variant] | 1.19 | 1.1 | 1.11 | 1.09 | 1.09 | 1.18 |
| AUUACCCUUGUCCUCGAGUGA [Fam2.1 aminoacylation ribozyme variant] | 32.2 | 3.08 | 5.17 | 4.77 | 4.9 | 2.68 |
| CAGUUUGCUAAUAGUCGGAAG [Fam3.1 aminoacylation ribozyme variant] | 3.05 | 1.35 | 1.43 | 1.11 | 1.26 | 1.27 |
| GUUCACAUAGGUCAUCGGGUG [Fam2.2 aminoacylation ribozyme variant] | 51.1 | 4.64 | 8.49 | 8.18 | 6.87 | 4.89 |
| UUUCACCUAGGUCAUCAGGUG [Fam2.2 aminoacylation ribozyme variant] | 1.36 | 1.7 | 1.52 | 1.52 | 1.79 | 1.58 |
| ACUCACCUAGGUCAUCGGGCG [Fam2.2 aminoacylation ribozyme variant] | 2.07 | 2.63 | 2.63 | 3.85 | 2.66 | 3.12 |
| AUUCACCUAGGUCAUUGCGUG [Fam2.2 aminoacylation ribozyme variant] | 123 | 7.69 | 15.8 | 21.7 | 15.7 | 8.82 |
| AAGUUUGCUAAUAGUCGUACG [Fam3.1 aminoacylation ribozyme variant] | 1.11 | 0.565 | 0.579 | 0.524 | 0.547 | 0.65 |
| CCACACUUCAAACAAUAGGUC [Fam1B.1 aminoacylation ribozyme variant] | 0.995 | 0.656 | 0.652 | 0.471 | 0.435 | 0.617 |
| CUACUUCAAACAAUCCGUUUG [Fam1A.1 aminoacylation ribozyme variant] | 0.704 | 0.77 | 0.87 | 0.674 | 0.594 | 0.694 |
| AUUACCCUUGUCAGCGAGUGA [Fam2.1 aminoacylation ribozyme variant] | 28.6 | 3.3 | 6.54 | 6.14 | 5.08 | 2.94 |
| AUUCACGCAGGUCAUCGGGUG [Fam2.2 aminoacylation ribozyme variant] | 41.6 | 4.58 | 5.58 | 4.77 | 4.55 | 3.54 |
| CCCCCCUUCAAGCAAUCGGUC [Fam1B.1 aminoacylation ribozyme variant] | 80.1 | 2.67 | 44.8 | 3.18 | 2 | 1.88 |
